Experimental findings from paper PMC5314801 (Nucleic Acids Research, 2016) are described below.

As a reminder, the stoichiometry N is the number of molecules, sites or subunits per partner or assembly.

The data set “crystal structure” deals with the molecule itself. Description: crystal structure.
The data set “SEC” deals with the molecule itself. Description: SEC.
Another data set concerns the target T1, RsaL (crystal) (UniProt Q9X7H4 1-80).
T1 sequence: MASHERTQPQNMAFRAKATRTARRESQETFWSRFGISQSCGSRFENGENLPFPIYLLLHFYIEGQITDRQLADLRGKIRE
Description: X-ray crystallography.

B1: RsaL (natural protein, Pseudomonas aeruginosa, UniProt Q9X7H4 1-80, looked up)
chain: MASHERTQPQNMAFRAKATRTARRESQETFWSRFGISQSCGSRFENGENLPFPIYLLLHFYIEGQITDRQLADLRGKIRE
Regarding B1, the binding result in “crystal structure” was “binds”.

B2: RsaL^Q27A (natural protein, Pseudomonas aeruginosa, UniProt Q9X7H4 1-80, looked up)
chain: MASHERTQPQNMAFRAKATRTARRESAETFWSRFGISQSCGSRFENGENLPFPIYLLLHFYIEGQITDRQLADLRGKIRE
For B2, in the data set “SEC”, the “stoichiometry N” value was determined as 2.

B3: RsaL with Glu45 mutated to Ala (natural protein, Pseudomonas aeruginosa, UniProt Q9X7H4 1-80, looked up)
chain: MASHERTQPQNMAFRAKATRTARRESQETFWSRFGISQSCGSRFANGENLPFPIYLLLHFYIEGQITDRQLADLRGKIRE
Turning to B3, the “stoichiometry N” value in “SEC” came to 2.

B4: RsaL^Q38A (natural protein, Pseudomonas aeruginosa, UniProt Q9X7H4 1-80, looked up)
chain: MASHERTQPQNMAFRAKATRTARRESQETFWSRFGISASCGSRFENGENLPFPIYLLLHFYIEGQITDRQLADLRGKIRE
B4: in the data set “SEC”, the “stoichiometry N” value stood at 2.

B5: RsaL^R43A (natural protein, Pseudomonas aeruginosa, UniProt Q9X7H4 1-80, looked up)
chain: MASHERTQPQNMAFRAKATRTARRESQETFWSRFGISQSCGSAFENGENLPFPIYLLLHFYIEGQITDRQLADLRGKIRE
B5: the “stoichiometry N” value in “SEC” was found to be 2.

B6: RsaL R20A (natural protein, Pseudomonas aeruginosa, UniProt Q9X7H4 1-80, looked up)
chain: MASHERTQPQNMAFRAKATATARRESQETFWSRFGISQSCGSRFENGENLPFPIYLLLHFYIEGQITDRQLADLRGKIRE
For the molecule B6, the “stoichiometry N” value in the data set “SEC” is 2.

B7: lasI promoter crystal duplex DNA_F/DNA_R (dsDNA)
DNA 1: AAAAATTATGAAATTTGCATAAATTC
DNA 2: TGAATTTATGCAAATTTCATAATTTT
B7: the binding result with RsaL (crystal) is “binds”.
